# Assay results: patent US20120047600A1, “CAFFEOYL COA REDUCTASE” (priority 2010, published 2012)
# How the values were obtained:
# Format in all cases: biochemical, M. truncatula
# Medicago CCR1 = Medicago CCR1 (Medicago truncatula, UniProt A0A072VDF2); assay: CCR enzyme activity assay with purified recombinant Medicago CCR1 expressed in E. coli; conditions: for CCR1 activity with substrate: qualitative, FIG. 5A,C
# From the text: (§1) To assess the potential of Medicago CCRs to produce caffeoyl aldehyde, CCR1 and CCR2 were expressed in E. coli and assayed the purified recombinant enzymes with varying concentrations of each of the four potential substrates, 4-coumaroyl-, caffeoyl-, feruloyl- and sinapoyl-CoAs. Briefly, the coding regions of CCR1 and CCR2 were amplified from the original cDNA clones with introduction of NheI enzyme sites before the ATG start codons, a BamHI site after the CCR1 stop codon, and an XhoI site after the CCR2 stop codon. The primers EpCCR1F and EpCCR1R (see Table 3 below) were used for amplification of CCR1, and EpCCR2F and EpCCR2R were used for amplification of CCR2. The PCR products were cloned into T-vector (Promega). After confirmation by sequencing, both CCR sequences were subcloned into pET28a vector (Novagen) and the resulting constructs introduced into E. coli strain BL21 ([…]) (Novagen). The clones with correct inserts were grown at 37° C. until OD600 reached about 0.6, IPTG was added to a final concentration at 0.25 mM, and culture continued at 16° C. overnight. Induced E. coli cells were harvested by centrifugation at 5,000 g for 10 min, frozen in liquid nitrogen and stored at −80° C.
# All enzyme purification steps were carried out at 4° C. […]
# (§2) For CCR enzyme activity assays purified CCR protein (2.5 μg) was mixed with assay buffer (100 mM phosphate pH 6.25, 10 mM 2-mercaptoethanol, 0.2 mM NADPH and cinnamoyl CoA substrates at the indicated concentration) in a final volume of 500 μl. […] Compounds were identified by comparing their UV spectra and retention times with authentic standards of hydroxycinnamoyl aldehydes, and quantified by means of standard curves with correction for recovery of internal standards. Protein concentrations were determined using Bradford reagent (Bio-Rad). For kinetic analysis at various substrate concentrations, enzyme velocity curves were analyzed using Sigmaplot 10 software (Systat Software Inc.).
# Medicago CCR2 = Medicago CCR2 (Medicago truncatula, UniProt G7JEE5); assay: CCR enzyme activity assay with purified recombinant Medicago CCR2 expressed in E. coli; conditions: for CCR2 activity at higher substrate concentrations: substrate inhibition, FIG. 5C,D
# From the text: as §1
# (§3) All enzyme purification steps were carried out at 4° C. The harvested cells were suspended in extraction buffer (100 mM Hepes-NaOH, pH 7.5, 500 mM NaCl, 10 mM imidazole, 10% glycerol, 10 mM mercaptoethanol, 1 mM EDTA, and 1 mM PMSF), sonicated three times for 20 s and centrifuged at 16,000 g for 10 min. The supernatants were mixed with Ni-NTA His-bind resin (Promega). After washing three times in extraction buffer without PMSF, the recombinant proteins were eluted with elution buffer (100 mM Hepes-NaOH, 10% glycerol, 1 mM EDTA, 10 mM mercaptoethanol, and 500 mM imidazole) and the protein stored at −80 ° C. until assay.
# as §2, with “μl. The reaction was carried out at 30° C. for 5 min and then terminated with the addition of 70 μL 24% trichloroacetic acid. The reaction mixture was extracted with ethyl acetate (0.6 ml×3) and the combined organic phases dried under a stream of N2.” for “μl.”
# [1] = substrate: CC(C)(COP(=O)(O)OP(=O)(O)OC[C@H]1O[C@@H](n2cnc3c(N)ncnc32)[C@H](O)[C@@H]1OP(=O)(O)O)[C@@H](O)C(=O)NCCC(=O)NCCSC(=O)/C=C/c1ccc(O)cc1; assay: CCR enzyme activity assay with purified recombinant Medicago CCR1 expressed in E. coli; conditions: other: CCR1; compound as substrate; mean of three replicate sets of assays
# From the text: as §1, §3
# (§4) For CCR enzyme activity assays purified CCR protein (2.5 μg) was mixed with assay buffer (100 mM phosphate pH 6.25, 10 mM 2-mercaptoethanol, 0.2 mM NADPH and cinnamoyl CoA substrates at the indicated concentration) in a final volume of 500 μl. The reaction was carried out at 30° C. for 5 min and then terminated with the addition of 70 μL 24% trichloroacetic acid. The reaction mixture was extracted with ethyl acetate (0.6 ml×3) and the combined organic phases dried under a stream of N2. The pellet was re-suspended in 50 μL methanol and 25 μL was subjected to HPLC analysis out on a Beckman System Gold HPLC system consisting of a programmable solvent module 126, a System Gold 508 autosampler and a System Gold 168 diode array detector. A Waters Spherisorb ODS-2 5 μm reverse phase column (5 μm particle, 250×4.6 mm) was used. Compounds were identified by comparing their UV spectra and retention times with authentic standards of hydroxycinnamoyl aldehydes, and quantified by means of standard curves with correction for recovery of internal standards. Protein concentrations were determined using Bradford reagent (Bio-Rad). For kinetic analysis at various substrate concentrations, enzyme velocity curves were analyzed using Sigmaplot 10 software (Systat Software Inc.).
# [2] = substrate: CC(C)(COP(=O)(O)OP(=O)(O)OC[C@H]1O[C@@H](n2cnc3c(N)ncnc32)[C@H](O)[C@@H]1OP(=O)(O)O)[C@@H](O)C(=O)NCCC(=O)NCCSC(=O)/C=C/c1ccc(O)c(O)c1; assay: as above; conditions: other: CCR1; compound as substrate; mean of three replicate sets of assays
# From the text: as §1, §3, §4
# [3] = substrate: COc1cc(/C=C/C(=O)SCCNC(=O)CCNC(=O)[C@H](O)C(C)(C)COP(=O)(O)OP(=O)(O)OC[C@H]2O[C@@H](n3cnc4c(N)ncnc43)[C@H](O)[C@@H]2OP(=O)(O)O)ccc1O; assay: as above; conditions: other: CCR1; compound as substrate; mean of three replicate sets of assays
# From the text: as §1, §3, §4
# [4] = substrate: COc1cc(/C=C/C(=O)SCCNC(=O)CCNC(=O)[C@H](O)C(C)(C)COP(=O)(O)OP(=O)(O)OC[C@H]2O[C@@H](n3cnc4c(N)ncnc43)[C@H](O)[C@@H]2OP(=O)(O)O)cc(OC)c1O; assay: as above; conditions: other: CCR1; compound as substrate; mean of three replicate sets of assays
# From the text: as §1, §3, §4
# [5] = substrate: CC(C)(COP(=O)(O)OP(=O)(O)OC[C@H]1O[C@@H](n2cnc3c(N)ncnc32)[C@H](O)[C@@H]1OP(=O)(O)O)[C@@H](O)C(=O)NCCC(=O)NCCSC(=O)/C=C/c1ccc(O)cc1; assay: CCR enzyme activity assay with purified recombinant Medicago CCR2 expressed in E. coli; conditions: other: CCR2; compound as substrate; S0.5 given in place of Km for coumaroyl and caffeoyl CoAs (sigmoidal velocity curves)
# From the text: as §1, §3, §4
# [6] = substrate: CC(C)(COP(=O)(O)OP(=O)(O)OC[C@H]1O[C@@H](n2cnc3c(N)ncnc32)[C@H](O)[C@@H]1OP(=O)(O)O)[C@@H](O)C(=O)NCCC(=O)NCCSC(=O)/C=C/c1ccc(O)c(O)c1; assay: as above; conditions: other: CCR2; compound as substrate; S0.5 given in place of Km for coumaroyl and caffeoyl CoAs (sigmoidal velocity curves)
# From the text: as §1, §3, §4
# [7] = substrate: COc1cc(/C=C/C(=O)SCCNC(=O)CCNC(=O)[C@H](O)C(C)(C)COP(=O)(O)OP(=O)(O)OC[C@H]2O[C@@H](n3cnc4c(N)ncnc43)[C@H](O)[C@@H]2OP(=O)(O)O)ccc1O; assay: as above; conditions: other: CCR2; compound as substrate; S0.5 given in place of Km for coumaroyl and caffeoyl CoAs (sigmoidal velocity curves)
# From the text: as §1, §3, §4
# [8] = substrate: COc1cc(/C=C/C(=O)SCCNC(=O)CCNC(=O)[C@H](O)C(C)(C)COP(=O)(O)OP(=O)(O)OC[C@H]2O[C@@H](n3cnc4c(N)ncnc43)[C@H](O)[C@@H]2OP(=O)(O)O)cc(OC)c1O; assay: as above; conditions: other: CCR2; compound as substrate; S0.5 given in place of Km for coumaroyl and caffeoyl CoAs (sigmoidal velocity curves)
# From the text: as §1, §3, §4
molecule,measurement,setting,value
COc1cc(/C=C/C(=O)SCCNC(=O)CCNC(=O)[C@H](O)C(C)(C)COP(=O)(O)OP(=O)(O)OC[C@H]2O[C@@H](n3cnc4c(N)ncnc43)[C@H](O)[C@@H]2OP(=O)(O)O)ccc1O [Feruloyl CoA],CCR1 activity with substrate,Medicago CCR1,most active
same,CCR2 activity at higher substrate concentrations,Medicago CCR2,strongly inhibited
CC(C)(COP(=O)(O)OP(=O)(O)OC[C@H]1O[C@@H](n2cnc3c(N)ncnc32)[C@H](O)[C@@H]1OP(=O)(O)O)[C@@H](O)C(=O)NCCC(=O)NCCSC(=O)/C=C/c1ccc(O)c(O)c1 [Caffeoyl CoA],CCR1 activity relative to CCR2 activity,Medicago CCR1; at 50 μM substrate (FIG. 5A),around 7%
same,CCR1 activity with substrate,Medicago CCR1,very low activity
COc1cc(/C=C/C(=O)SCCNC(=O)CCNC(=O)[C@H](O)C(C)(C)COP(=O)(O)OP(=O)(O)OC[C@H]2O[C@@H](n3cnc4c(N)ncnc43)[C@H](O)[C@@H]2OP(=O)(O)O)cc(OC)c1O [Sinapoyl CoA],CCR2 activity relative to CCR1,Medicago CCR2; at 20 μM substrate,almost twice as active
same,CCR2 activity,Medicago CCR2; at 50 μM substrate,virtually no activity
same,CCR2 activity at higher substrate concentrations,Medicago CCR2,strongly inhibited
Medicago CCR1 (Medicago truncatula) (protein) MPAATAAAAAESSSVSGETICVTGAGGFIASWMVKLLLEKGYTVRGTLRNPDDPKNGHLKKLEGAKERLTLVKVDLLDLNSVKEAVNGCHGVFHTASPVTDNPEEMVEPAVNGAKNVIIAGAEAKVRRVVFTSSIGAVYMDPNRSVDVEVDESCWSDLEFCKKTKNWYCYGKAVAEAAAWDVAKEKGVDLVVVNPVLVLGPLLQPTINASTIHILKYLTGSAKTYANATQAYVHVRDVALAHILVYEKPSASGRYLCAETSLHRGELVEILAKYFPEYPIPTKCSDEKNPRVKPHIFSNKKLKDLGLEFTPVSECLYETVKSLQDQGHLSIPNKEDSLAVKS,K0.5,[1],56.8 ± 4.7 µM
same,Vmax,[1],0.25 ± 0.01 µmol/min
same,kcat,[1],0.15 ± 0.00167 s⁻¹
same,kcat/Km,[1],2670 ± 1700 M⁻¹ s⁻¹
same,K0.5,[2],161 ± 6.8 µM
same,Vmax,[2],0.085 ± 0.0 µmol/min
same,kcat,[2],0.0517 ± 0.0012 s⁻¹
same,kcat/Km,[2],317 ± 0 M⁻¹ s⁻¹
same,K0.5,[3],54.5 ± 3.2 µM
same,Vmax,[3],1.64 ± 0.11 µmol/min
same,kcat,[3],1 ± 0.0342 s⁻¹
same,kcat/Km,[3],19000 ± 1300 M⁻¹ s⁻¹
same,K0.5,[4],7.2 ± 0.4 µM
same,Vmax,[4],0.15 ± 0.01 µmol/min
same,kcat,[4],0.0917 ± 0.00233 s⁻¹
same,kcat/Km,[4],11300 ± 830 M⁻¹ s⁻¹
Medicago CCR2 (Medicago truncatula) (protein) MPAYDNTSSVSGGDQTVCVTGAGGFIASWLVKLLLERGYTVRGTVRNPEDPKNGHLKELEGARERLTLHKVDLLDLQSIQSVVHGCHGVFHTASPVTDNPDEMLEPAVNGTKNVIIASAEAKVRRVVFTSSIGTVYMDPNTSRDVVVDESYWSDLEHCKNTKNWYCYGKTVAEQSAWDIAKENQVDLVVVNPVVVLGPLLQPTINASTIHILKYLNGAAKTYVNATQSYVHVKDVALAHLLVYETNSASGRYICCETALHRGEVVEILAKYFPEYPLPTKCSDEKNPRVKPYKFSNQKLKDLGLEFTPVKQCLYDTVRSLQEKGHLPIPPMQEDSA,K0.5,[5],12.4 ± 1.0 µM
same,Vmax,[5],0.44 ± 0.01 µmol/min
same,kcat,[5],0.29 ± 0.0067 s⁻¹
same,kcat/Km,[5],15000 ± 500 M⁻¹ s⁻¹
same,K0.5,[6],23.4 ± 0.80 µM
same,Vmax,[6],0.35 ± 0.01 µmol/min
same,kcat,[6],0.15 ± 0.005 s⁻¹
same,kcat/Km,[6],8170 ± 330 M⁻¹ s⁻¹
same,K0.5,[7],44.5 ± 4.5 µM
same,Vmax,[7],0.48 ± 0.05 µmol/min
same,kcat,[7],0.302 ± 0.0333 s⁻¹
same,kcat/Km,[7],6670 ± 830 M⁻¹ s⁻¹
same,K0.5,[8],32.7 ± 3.6 µM
same,Vmax,[8],0.32 ± 0.02 µmol/min
same,kcat,[8],0.2 ± 0.0183 s⁻¹
same,kcat/Km,[8],6170 ± 830 M⁻¹ s⁻¹
